According to PMC3572902:

B1: human anti-V2 monoclonal antibody 697 (antibody, V domains shown)
VH: QVQLVQSGAEVKKPGSSVKVSCKASGGNFNTYTISWVRQAPGQGLEWMGRIIPIFGIVNPAQKFPGRVTINVDKSTNTAYMELSSLRSEDTAVYYCATSGVGLHFGYFDYWGQGTQVTVSS
VL: QSVLTQPPSVSGAPGQRVTISCTGSSSNIGAHYDVHWYQQLPGTAPKLLIYGNSNRPSGVPDRFSGSKSGTSASLAITGLQAEDEADYYCQSYDSSLSGYVFGTGTKVTVL

Experiments:
[1] = biological target: recombinant gp120 JR-FL (HIV-1); assay: ELISA
[2] = biological target: Env of pseudovirus MW965.26 (HIV-1)
[3] = biological target: Env of pseudovirus SF162.LS (HIV-1)
[4] = biological target: Env of pseudovirus Bx08.16 (HIV-1)
[5] = biological target: Env of pseudovirus 6535.3 (HIV-1)
[6] = biological target: Env of pseudovirus BaL.26 (HIV-1)
[7] = biological target: Env of pseudovirus SS1196.1 (HIV-1)
[8] = biological target: Env of pseudovirus HXB2.DG (HIV-1) (UniProt P04578)
[9] = biological target: recombinant gp120 MSC5007 (HIV-1); assay: ELISA
[10] = biological target: Env of pseudovirus DJ263.8 (HIV-1)
[11] = biological target: recombinant gp120 ZM53M (HIV-1); assay: ELISA
[12] = biological target: fusion protein V1V2_(Case-A2)-gp70 (HIV-1); assay: ELISA
[13] = biological target: recombinant gp120 REJO4541 (HIV-1); assay: ELISA

Molecule	O.D. (ELISA, mAb at 10 μg/ml) [1] [O.D.]	IC50 of neutralisation of pseudovirus MW965.26 (TZM-bl cell assay) [2] [µg/mL]	IC50 of neutralisation of pseudovirus SF162.LS (TZM-bl cell assay) [3] [µg/mL]	IC50 of neutralisation of pseudovirus Bx08.16 (TZM-bl cell assay) [4] [µg/mL]	IC50 of neutralisation of pseudovirus 6535.3 (TZM-bl cell assay) [5] [µg/mL]	IC50 of neutralisation of pseudovirus BaL.26 (TZM-bl cell assay) [6] [µg/mL]	IC50 of neutralisation of pseudovirus SS1196.1 (TZM-bl cell assay) [7] [µg/mL]	IC50 of neutralisation of pseudovirus HXB2.DG (TZM-bl cell assay) [8] [µg/mL]	O.D. (ELISA, mAb at 10 μg/ml) [9] [O.D.]	IC50 of neutralisation of pseudovirus DJ263.8 (TZM-bl cell assay) [10] [µg/mL]	O.D. (ELISA, mAb at 10 μg/ml) [11] [O.D.]	percent inhibition of the binding of biotinylated 697 to V1V2-gp70 [12] [%]	O.D. (ELISA, mAb at 10 μg/ml) [13] [O.D.]
human anti-V2 monoclonal antibody 697	4												
human anti-V2 monoclonal antibody 830A		< 0.4	6.2	> 50	> 50	36.1	> 50	> 50	4				
human anti-V2 monoclonal antibody 1357	4	0.8	33.5					36.9		29.2			
human anti-V2 monoclonal antibody 1361		< 0.4	5.4				23.8	18.6		11.8	4		
human anti-V2 monoclonal antibody 1393A	4	0.8	12.5				88.7	19.8		11.1			
human anti-V2 monoclonal antibody 2158		0.8	6.4				27.6	17.8					
human anti-V2 monoclonal antibody 2297												47	4
B1		1.8	19.9	11.2		20.2	16.8			38.6			
